Blank lines part the entries; values can stand above or below the binder they belong to.
Tests used:
HLA-A*0201 (human) [1] = test: competition with 125I-labelled standard peptide for purified HLA, gel filtration; conditions: for binding affinity ratio: scale: ratio
HLA-A*0201 (human) [2] = test: competitive inhibition of 125I-labelled standard peptide binding to purified HLA, gel filtration; ratio = IC50 standard / IC50 test peptide
HLA-A*0201 (human) [3] = test: competition with 125I-labelled standard peptide 941.01 for purified HLA, gel filtration; conditions: scale: ratio
[4] = remark: other sources report otherwise

binding affinity ratio (IC50 of standard peptide / IC50 of test peptide) (HLA-A*0201 (human) [1]): 0.0002
Binder: PIDTFPTDPI (modifications not checked) [PAP 49 …]

binding affinity ratio (IC50 of standard peptide / IC50 of test peptide) (HLA-A*0201 (human) [1]): 0.0006
Binder: PLSEDQLLYL (modifications not checked) [PAP 147 …]

binding affinity ratio (HLA-A*0201 (human) [1]): 0.0002
Binder: LAGAKGVIL (modifications not checked) [… (PSM, position 219, 9 amino acids)]

binding affinity ratio (HLA-A*0201 (human) [1]): 0.0001
Binder: SMKHPQEMKT (modifications not checked) [PSM peptide … (position 615, 10 amino acids)]

binding affinity ratio (HLA-A*0201 (human) [1]): 0.0002
Binder: LARAASLSL (modifications not checked) [… (PAP, position 8, 9 amino acids)]

binding affinity ratio (IC50 of standard peptide / IC50 of test peptide) (HLA-A*0201 (human) [1]): 0.0001
Binder: PADYFAPGV (modifications not checked) [PSM 231 …]

binding affinity ratio (HLA-A*0201 (human) [1]): 0.0002
Binder: SVELAHYDVL (modifications not checked) [PSM peptide … (position 107, 10 amino acids)]

binding affinity ratio (HLA-A*0201 (human) [2]): 0.0002
Binder: VLSIALSVGCT (modifications not checked) [… (Kallikrein, position 5)]

binding affinity ratio (HLA-A*0201 (human) [1]): 0.0001
Binder: LLRLSEPAEL (modifications not checked) [… (PSA, position 119, 10 amino acids)]

binding affinity ratio (HLA-A*0201 (human) [3]): 0.0001
Binder: GITSWGSEPCA (modifications not checked) [PSA peptide … (position 221)]

binding affinity ratio (HLA-A*0201 (human) [3]): 0.0005
Binder: WIGAAPLIL (modifications not checked) [… (PSA, position 10, 9 amino acids)]

binding affinity ratio (IC50 of standard peptide / IC50 of test peptide) (HLA-A*0201 (human) [1]): 0.0002
Binder: PLYDMSLL (modifications not checked) [PSA 95 PLYDMSLL]

binding affinity ratio (HLA-A*0201 (human) [1]): 0.0002
Binder: SLVHNLTKEL (modifications not checked) [PSM peptide … (position 472, 10 amino acids)]

binding affinity ratio (HLA-A*0201 (human) [1]): 0.0001
Binder: LLRLSEPA (modifications not checked) [LLRLSEPA (PSA, position 119, 8 amino acids)]

binding affinity ratio (HLA-A*0201 (human) [1]): 0.0001
Binder: SVELAHYDV (modifications not checked) [PSM peptide … (position 107, 9 amino acids)]

binding affinity ratio (HLA-A*0201 (human) [1]): 0.0001
Binder: LLRLSEPA (modifications not checked) [LLRLSEPA (Kallikrein, position 123, 8 amino acids)]

binding affinity ratio (HLA-A*0201 (human) [3]): 0.0002
Binder: GIWSKVYDPL (modifications not checked) [PAP peptide … (position 204)]

binding affinity ratio (IC50 of standard peptide / IC50 of test peptide) (HLA-A*0201 (human) [1]): 0.0002
Binder: PIPVHTVPL (modifications not checked) [PAP 140 …]

binding affinity ratio (HLA-A*0201 (human) [1]): 0.0001
Binder: KVVHYRKWI (modifications not checked) [… (PSA, position 241, 9 amino acids)]

binding affinity ratio (HLA-A*0201 (human) [3]): 0.0008
Binder: VVFLTLSVT (modifications not checked) [… (PSA, position 1, 9 amino acids)]

binding affinity ratio (HLA-A*0201 (human) [1]): 0.002
Binder: KVTKFMLCA (modifications not checked) [… (PSA, position 187, 9 amino acids)]

binding affinity ratio (HLA-A*0201 (human) [1]): 0.0002
Binder: LAKELKFVTL (modifications not checked) [… (PAP, position 31, 10 amino acids)]

binding affinity ratio (IC50 of standard peptide / IC50 of test peptide) (HLA-A*0201 (human) [1]): 0.002
Binder: PLVCNGVLQGI (modifications not checked) [Kallikrein 216 …]

binding affinity ratio (HLA-A*0201 (human) [1]): 0.0001
Binder: STQKVKMHI (modifications not checked) [PSM peptide … (position 338, 9 amino acids)]

binding affinity ratio (HLA-A*0201 (human) [1]): 0.0001
Binder: LAGTEQNFQL (modifications not checked) [… (PSM, position 83, 10 amino acids)]

binding affinity ratio (HLA-A*0201 (human) [3]): 0.0005
Binder: GAAPLILSRI (modifications not checked) [PSA peptide … (position 12)]

binding affinity ratio (HLA-A*0201 (human) [2]): 0.0003
Binder: VLVASRGRAV (modifications not checked)

binding affinity ratio (HLA-A*0201 (human) [1]): 0.02
Binder: SLSLGFLFL (modifications not checked) [PAP peptide … (position 13, 9 amino acids)]

binding affinity ratio (HLA-A*0201 (human) [3]): 0.0019
Binder: VTWIGAAPLI (modifications not checked) [… (PSA, position 8, 10 amino acids)]

binding affinity ratio (HLA-A*0201 (human) [1]): 0.0001
Binder: SVTWIGAA (modifications not checked) [PSA peptide SVTWIGAA (position 7, 8 amino acids)]

binding affinity ratio (HLA-A*0201 (human) [1]): 0.002
Binder: SLLKNRFL (modifications not checked) [PSA peptide SLLKNRFL (position 100, 8 amino acids)]

binding affinity ratio (HLA-A*0201 (human) [3]): 0.0002
Binder: VVFLTLSV (modifications not checked) [VVFLTLSV (PSA, position 1, 8 amino acids)]

binding affinity ratio (HLA-A*0201 (human) [3]): 0.0002
Binder: GIDPQSGAAV (modifications not checked) [PSM peptide … (position 385)]

binding affinity ratio (HLA-A*0201 (human) [3]; [4]): 0.0008
Binder: VTEFMLCAGL (modifications not checked) [… (Kallikrein, position 192, 10 amino acids)]

binding affinity ratio (IC50 of standard peptide / IC50 of test peptide) (HLA-A*0201 (human) [1]): 0.0001
Binder: PLERFAELV (modifications not checked) [PAP 352 …]

binding affinity ratio (IC50 of standard peptide / IC50 of test peptide) (HLA-A*0201 (human) [1]): 0.0005
Binder: PMFKYHLTVA (modifications not checked) [PSM 568 …]

binding affinity ratio (HLA-A*0201 (human) [3]): 0.0001
Binder: VVLRKYADKI (modifications not checked) [… (PSM, position 602, 10 amino acids)]

binding affinity ratio (IC50 of standard peptide / IC50 of test peptide) (HLA-A*0201 (human) [1]): 0.0002
Binder: PAELTDAVKV (modifications not checked) [PSA 125 …]

binding affinity ratio (HLA-A*0201 (human) [1]): 0.0001
Binder: KVVHYRKWI (modifications not checked) [… (Kallikrein, position 245, 9 amino acids)]

binding affinity ratio (HLA-A*0201 (human) [2]): 0.0001
Binder: VLVASRGRA (modifications not checked)

binding affinity ratio (HLA-A*0201 (human) [3]): 0.0001
Binder: WIKDTIVA (modifications not checked) [WIKDTIVA (PSA, position 248, 8 amino acids)]

binding affinity ratio (IC50 of standard peptide / IC50 of test peptide) (HLA-A*0201 (human) [1]): 0.0008
Binder: PLMYSLVHNL (modifications not checked) [PSM 468 …]

binding affinity ratio (HLA-A*0201 (human) [3]): 0.0002
Binder: GAAVVHEIV (modifications not checked) [PSM peptide … (position 391)]

binding affinity ratio (HLA-A*0201 (human) [2]): 0.0001
Binder: VLTAAHCI (modifications not checked) [VLTAAHCI (PSA, position 56)]

binding affinity ratio (HLA-A*0201 (human) [3]): 0.0001
Binder: FTVQAAAETL (modifications not checked) [PSM peptide … (position 737)]

binding affinity ratio (IC50 of standard peptide / IC50 of test peptide) (HLA-A*0201 (human) [1]): 0.0001
Binder: NVIGTLRGAV (modifications not checked) [PSM 357 …]

binding affinity ratio (IC50 of standard peptide / IC50 of test peptide) (HLA-A*0201 (human) [1]): 0.0001
Binder: PLVCNGVL (modifications not checked) [Kallikrein 216 PLVGNGVL]

binding affinity ratio (HLA-A*0201 (human) [1]): 0.0001
Binder: SIINEDGNEI (modifications not checked) [PSM peptide … (position 129, 10 amino acids)]

binding affinity ratio (HLA-A*0201 (human) [3]): 0.0002
Binder: WATEDTMTKL (modifications not checked) [… (PAP, position 226, 10 amino acids)]

binding affinity ratio (IC50 of standard peptide / IC50 of test peptide) (HLA-A*0201 (human) [1]): 0.0001
Binder: PLILSRIV (modifications not checked) [PSA 15 PLILSRIV]

binding affinity ratio (HLA-A*0201 (human) [3]): 0.011
Binder: VTWIGAAPL (modifications not checked) [… (PSA, position 8, 9 amino acids)]

binding affinity ratio (HLA-A*0201 (human) [3]): 0.0005
Binder: WIGAAPLI (modifications not checked) [WIGAAPLI (PSA, position 10, 8 amino acids)]

binding affinity ratio (IC50 of standard peptide / IC50 of test peptide) (HLA-A*0201 (human) [1]): 0.0001
Binder: PLVCNGVL (modifications not checked) [PSA 212 PLVGNGVL]

binding affinity ratio (HLA-A*0201 (human) [3]): 0.0002
Binder: GAVEPDRYVI (modifications not checked)

binding affinity ratio (HLA-A*0201 (human) [1]): 0.001
Binder: SLFSAVKNFT (modifications not checked) [PSM peptide … (position 631, 10 amino acids)]

binding affinity ratio (HLA-A*0201 (human) [3]; [4]): 0.0008
Binder: WVLTAAHCI (modifications not checked) [… (PSA, position 55, 9 amino acids)]

binding affinity ratio (IC50 of standard peptide / IC50 of test peptide) (HLA-A*0201 (human) [1]): 0.0001
Binder: PIGYYDAQKL (modifications not checked) [PSM 296 …]

binding affinity ratio (IC50 of standard peptide / IC50 of test peptide) (HLA-A*0201 (human) [1]): 0.002
Binder: PLVCNGVLQGI (modifications not checked) [PSA 212 …]

binding affinity ratio (HLA-A*0201 (human) [3]): 0.0001
Binder: WAEENSRLL (modifications not checked) [… (PSM, position 434, 9 amino acids)]

binding affinity ratio (HLA-A*0201 (human) [3]): -0.0001
Binder: WAHCGGVLV (modifications not checked) [… (Kallikrein, position 47, 9 amino acids)]

binding affinity ratio (IC50 of the standard peptide / IC50 of the test peptide) (HLA-A*0201 (human) [1]): 0.0002
Binder: YIRKRYRKFL (modifications not checked) [PAP 84 peptide …]

binding affinity ratio (HLA-A*0201 (human) [1]): 0.0006
Binder: LLHETDSAVA (modifications not checked) [… (PSM, position 4, 10 amino acids)]

binding affinity ratio (IC50 of the standard peptide / IC50 of the test peptide) (HLA-A*0201 (human) [1]): 0.0002
Binder: YARTEDFFKL (modifications not checked) [PSM 179 peptide …]

binding affinity ratio (HLA-A*0201 (human) [1]): 0.0001
Binder: LLEKMGGSA (modifications not checked) [… (PSM, position 305, 9 amino acids)]

binding affinity ratio (HLA-A*0201 (human) [1]; [4]): 0.001
Binder: KVTEFMLCAGL (modifications not checked) [… (Kallikrein, position 191, 11 amino acids)]

IC50 (HLA-A*0201 (human) [1]; [4]): 50 nM
Binder: DLMLLRLSEPV (modifications not checked) [peptide 1419.13 (PSA.116.V11 / HuK2.120.V11)]

binding affinity ratio (HLA-A*0201 (human) [3]): 0.0001
Binder: GAVEPDRYV (modifications not checked)

binding affinity ratio (HLA-A*0201 (human) [2]): 0.0001
Binder: VLVHPQWV (modifications not checked) [VLVHPQWV (Kallikrein, position 53)]

binding affinity ratio (IC50 of standard peptide / IC50 of test peptide) (HLA-A*0201 (human) [1]): 0.0002
Binder: PLYHSVYET (modifications not checked) [PSM 550 …]

binding affinity ratio (HLA-A*0201 (human) [1]): 0.0001
Binder: SVILLGRHSL (modifications not checked) [PSA peptide … (position 67, 10 amino acids)]
